Results: article PMC6331586, “Rapid determination of quaternary protein structures in complex biological samples” (Nature Communications, 2019)

Biological target: human serum albumin (human, UniProt P02768 25-609)
Experiment: cross-linking
Details: both partners purified

B1: M1 protein (amino acids 42–484), recombinant (domain or fragment)
chain: NGDGNPREVIEDLAANNPAIQNIRLRYENKDLKARLENAMEVAGRDFKRAEELEKAKQALEDQRKDLETKLKELQQDYDLAKESTSWDRQRLEKELEEKKEALELAIDQASRDYHRATALEKELEEKKKALELAIDQASQDYNRANVLEKELETITREQEINRNLLGNAKLELDQLSSEKEQLTIEKAKLEEEKQISDASRQSLRRDLDASREAKKQVEKDLANLTAELDKVKEDKQISDASRQGLRRDLDASREAKKQVEKDLANLTAELDKVKEEKQISDASRQGLRRDLDASREAKKQVEKALEEANSKLAALEKLNKELEESKKLTEKEKAELQAKLEAEAKALKEQLAKQAEELAKLRAGKASDSQTPDTKPGNKAVPGKGQAPQAGTKPNQNKAPMKETKRQLPSTGETANPFFTAAALTVMATAGVAAVVKRKEEN
notes: source: E. coli BL21 (DE3), purified (fibrinogen column, Ni-coupled Imac Sepharose)
- binding result: binds
